# B1: CIgG4B2A1(G4S)1 (Fc fusion)
# chain 1: GPPCPPCPAPEFLGGPSVFLFPPKPKDTLMISRTPEVTCVVVDVSQEDPEVQFNWYVDGVEVHNAKTKPREEQFNSTYRVVSVLTVLHQDWLNGKEYKCKVSNKGLPSSIEKTISKAKGQPREPQVYTLPPCQEEMTKNQVSLWCLVKGFYPSDIAVEWESNGQPENNYKTTPPVLDSDGSFFLYSRLTVDKSRWQEGNVFSCSVMHEALHNHYTQKSLSLSLGKGGGGSQVQLVESGGGLVQAGGSLRLSCAVFGSTFSNNVADWYRQAPGKQRELVARISASGATREYGDSVKGRFTISRDDAKNTMYLQMNNLKPEDTAVYRCHKIEWEDLSRKDYWGQGTQVTVS
# chain 2: GPPCPPCPAPEFLGGPSVFLFPPKPKDTLMISRTPEVTCVVVDVSQEDPEVQFNWYVDGVEVHNAKTKPREEQFNSTYRVVSVLTVLHQDWLNGKEYKCKVSNKGLPSSIEKTISKAKGQPREPQVCTLPPSQEEMTKNQVSLSCAVKGFYPSDIAVEWESNGQPENNYKTTPPVLDSDGSFFLVSRLTVDKSRWQEGNVFSCSVMHEALHNHYTQKSLSLSLGKGGGGSEVQLLESGGGLVQPGGSLRLSCAASGFTFGNYDMAWVRQAPGKRPEWVSSIDTGGDITHYADSVKGRFTISRDNAKNTLYLQMNSLRPEDTAVYWCATDEEYALGPNEFDYYGQGTLVTVSS
# B2: CIgG4B2A1(G4S)2 (Fc fusion)
# chain 1: GPPCPPCPAPEFLGGPSVFLFPPKPKDTLMISRTPEVTCVVVDVSQEDPEVQFNWYVDGVEVHNAKTKPREEQFNSTYRVVSVLTVLHQDWLNGKEYKCKVSNKGLPSSIEKTISKAKGQPREPQVYTLPPCQEEMTKNQVSLWCLVKGFYPSDIAVEWESNGQPENNYKTTPPVLDSDGSFFLYSRLTVDKSRWQEGNVFSCSVMHEALHNHYTQKSLSLSLGKGGGGSGGGGSQVQLVESGGGLVQAGGSLRLSCAVFGSTFSNNVADWYRQAPGKQRELVARISASGATREYGDSVKGRFTISRDDAKNTMYLQMNNLKPEDTAVYRCHKIEWEDLSRKDYWGQGTQVTVS
# chain 2: GPPCPPCPAPEFLGGPSVFLFPPKPKDTLMISRTPEVTCVVVDVSQEDPEVQFNWYVDGVEVHNAKTKPREEQFNSTYRVVSVLTVLHQDWLNGKEYKCKVSNKGLPSSIEKTISKAKGQPREPQVCTLPPSQEEMTKNQVSLSCAVKGFYPSDIAVEWESNGQPENNYKTTPPVLDSDGSFFLVSRLTVDKSRWQEGNVFSCSVMHEALHNHYTQKSLSLSLGKGGGGSGGGGSEVQLLESGGGLVQPGGSLRLSCAASGFTFGNYDMAWVRQAPGKRPEWVSSIDTGGDITHYADSVKGRFTISRDNAKNTLYLQMNSLRPEDTAVYWCATDEEYALGPNEFDYYGQGTLVTVSS
# B3: CIgG4B2A1(RS) (Fc fusion)
# chain 1: GPPCPPCPAPEFLGGPSVFLFPPKPKDTLMISRTPEVTCVVVDVSQEDPEVQFNWYVDGVEVHNAKTKPREEQFNSTYRVVSVLTVLHQDWLNGKEYKCKVSNKGLPSSIEKTISKAKGQPREPQVYTLPPCQEEMTKNQVSLWCLVKGFYPSDIAVEWESNGQPENNYKTTPPVLDSDGSFFLYSRLTVDKSRWQEGNVFSCSVMHEALHNHYTQKSLSLSLGKRSQVQLVESGGGLVQAGGSLRLSCAVFGSTFSNNVADWYRQAPGKQRELVARISASGATREYGDSVKGRFTISRDDAKNTMYLQMNNLKPEDTAVYRCHKIEWEDLSRKDYWGQGTQVTVS
# chain 2: GPPCPPCPAPEFLGGPSVFLFPPKPKDTLMISRTPEVTCVVVDVSQEDPEVQFNWYVDGVEVHNAKTKPREEQFNSTYRVVSVLTVLHQDWLNGKEYKCKVSNKGLPSSIEKTISKAKGQPREPQVCTLPPSQEEMTKNQVSLSCAVKGFYPSDIAVEWESNGQPENNYKTTPPVLDSDGSFFLVSRLTVDKSRWQEGNVFSCSVMHEALHNHYTQKSLSLSLGKRSEVQLLESGGGLVQPGGSLRLSCAASGFTFGNYDMAWVRQAPGKRPEWVSSIDTGGDITHYADSVKGRFTISRDNAKNTLYLQMNSLRPEDTAVYWCATDEEYALGPNEFDYYGQGTLVTVSS
# Biological target: T1, recombinant human IgE (human, UniProt P01854-1 1-428)
# T1 construct: made in-house (ALK); preloaded on immobilised FcεRIα in the displacement ELISA
# Assay: IgE-FcεRIα displacement ELISA
# In short: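 sdAbs at pM–μM were incubated 1 h on preformed complexes of 13 ng/ml recombinant human IgE with avi-tag-biotinylated human FcεRIα captured on streptavidin.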
# T1 sequence (P01854 other isoform, or with tags, fused parts or gaps): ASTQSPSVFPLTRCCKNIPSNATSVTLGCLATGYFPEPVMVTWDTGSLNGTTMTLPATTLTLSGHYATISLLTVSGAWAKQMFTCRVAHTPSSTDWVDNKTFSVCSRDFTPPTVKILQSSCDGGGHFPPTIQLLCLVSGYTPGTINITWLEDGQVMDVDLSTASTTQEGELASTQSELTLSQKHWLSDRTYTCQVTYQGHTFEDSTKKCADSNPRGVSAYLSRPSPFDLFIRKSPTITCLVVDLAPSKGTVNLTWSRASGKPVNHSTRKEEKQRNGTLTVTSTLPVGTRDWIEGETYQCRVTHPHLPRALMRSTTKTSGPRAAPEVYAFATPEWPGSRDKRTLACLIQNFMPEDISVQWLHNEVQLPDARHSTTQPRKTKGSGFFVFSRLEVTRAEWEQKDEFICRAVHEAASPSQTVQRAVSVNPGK
Binder,EC50,Max effect
B1,0.8 nM,> 95%
B2,0.7 nM,> 95%
B3,130 nM,70%

# Reference: patent publication US20250171562A1 (ALK ABELL, published 2025)
